B3: N-PH-FFAT (domain or fragment, UniProt P22059 1-408, looked up)
chain: MAATELRGVVGPGPAAIAALGGGGAGPPVVGGGGGRGDAGPGSGAASGTVVAAAAGGPGPGAGGVAAAGPAPAPPTGGSGGSGAGGSGSAREGWLFKWTNYIKGYQRRWFVLSNGLLSYYRSKAEMRHTCRGTINLATANITVEDSCNFIISNGGAQTYHLKASSEVERQRWVTALELAKAKAVKMLAESDESGDEESVSQTDKTELQNTLRTLSSKVEDLSTCNDLIAKHGTALQRSLSELESLKLPAESNEKIKQVNERATLFRITSNAMINACRDFLMLAQTHSKKWQKSLQYERDQRIRLEETLEQLAKQHNHLERAFRGATVLPANTPGNVGSGKDQCCSGKGDMSDEDDENEFFDAPEIITMPENLGHKRTGSNISGASSDISLDEQYKHQLEETKKEKRTR
notes: OSBP residues 1-408 (N-terminal region, PH domain, central core, FFAT motif), lacking the ORD; also called 1-408-OSBP; NH-FFAT

Assays:
OSBP FFAT (Homo sapiens) = OSBP FFAT (Homo sapiens) (UniProt P22059); settings: cited from earlier work
[1] = target: the molecule itself; test: SDS-PAGE without heating; purified VAP-A in DDM, with reducing agents; bands at ~55 kDa and ~25 kDa, a single band when the samples were heated
N-PH-FFAT = target: B3; test: membrane tethering seen by cryo-EM and cryo-ET; N-PH-FFAT or OSBP bound to GalCer/PI4P tubes (70 lipids/protein mol/mol), VAP-A proteoliposomes added (2 min incubation, or sequentially on the grid for 30 s), HK buffer, room temperature; settings: both partners purified
[2] = target: the molecule itself; test: SEC; analytical gel filtration, Superdex 75, 100 ul of 10 uM protein, 25 mM Tris pH 7.5, 120 mM NaCl, 1 mM DTT; Stokes radius against MW of standards
[3] = target: the molecule itself; test: cryo-EM structure; cryo-ET with sub-tomogram averaging of contact sites between VAP-A vesicles (LPR 70 mol/mol) and N-PH-FFAT on PI4P tubes; class with 20-25 nm membrane separation; VAP-A and N-PH-FFAT averaged separately

In the case of VAP-A MSP (from UniProt Q9P0L0), the Kd (OSBP FFAT (Homo sapiens)) is listed as 2000 nM.

B1: VAP-A (natural protein, human, UniProt Q9P0L0 8-249, looked up)
chain: MAKHEQILVLDPPTDLKFKGPFTDVVTTNLKLRNPSDRKVCFKVKTTAPRRYCVRPNSGIIDPGSTVTVSVMLQPFDYDPNEKSKHKFMVQTIFAPPNTSDMEAVWKEAKPDELMDSKLRCVFEMPNENDKLNDMEPSKAVPLNASKQDGPMPKPHSVSLNDTETRKLMEECKRLQGEMMKLSEENRHLRDEGLRLRKVAHSDKPGSTSTASFRDNVTSPLPSLLVVIAAIFIGFFLGKFIL
notes: VAP-A, human, Q9P0L0, fragment 8-249 with its C-terminal transmembrane helix; The methods give the fragment 8-249 and the results say full-length; Both tags were removed with TEV protease before size exclusion chromatography; also called full-length VAP-A; human VAP-A; source: E. coli C41 (DE3), membranes solubilised in DDM, purified (Strep-Tactin, TEV, Superdex 200); reconstituted in egg …
For B1, the “stoichiometry N” value [1] was 2 and the binding result (N-PH-FFAT) was “binds”.

B2: OSBP CC[G324C] (C224A/C276A/G324C) (domain or fragment, UniProt P22059 199-324, looked up)
chain: VSQTDKTELQNTLRTLSSKVEDLSTANDLIAKHGTALQRSLSELESLKLPAESNEKIKQVNERATLFRITSNAMINAARDFLMLAQTHSKKWQKSLQYERDQRIRLEETLEQLAKQHNHLERAFRC
modifications: AF-488, AF-568 or both dyes on the introduced cysteine C324 in the FRET experiments; unlabelled in gel filtration
notes: Cloned via BamH1/Xma1 into pGEX-4T2; source: E. coli Bl21gold, purified (Glutathione-Sepharose, thrombin, MonoS, Superose 12)
B2: binds [2].

In the case of B3, the “stoichiometry N” value [3] is reported as 2.

B4: OSBP Central Core (CC), wild type (domain or fragment, UniProt P22059 199-324, looked up)
chain: VSQTDKTELQNTLRTLSSKVEDLSTCNDLIAKHGTALQRSLSELESLKLPAESNEKIKQVNERATLFRITSNAMINACRDFLMLAQTHSKKWQKSLQYERDQRIRLEETLEQLAKQHNHLERAFRG
notes: The methods describe cloning (pGEX-4T2, GST tag, thrombin cleavage) and purification only for the cysteine mutants; also called OSBP CC; source: E. coli, purified
In the case of B4, the “stoichiometry N” value [2] is reported as 2.

— paper PMC8187361, “Nanoscale architecture of a VAP-A-OSBP tethering complex at membrane contact sites” (Nature Communications, 2021)
